Key:
CspL [1] = target: T1, CspL (Bacillus coagulans 2-6, UniProt A0A0C5C4D7 1-67); assay: BLI; BLI, streptavidin sensor with 5'-biotin oligo; 20 mM PBS pH 7.4, 100 mM NaCl, 0.1% BSA, 0.02% Tween 20; CspL 20 ug/ml; temperature not in the material; conditions: protein: recombinant, tags: His, label: 5'-biotin
CspL [2] = target: T1, CspL; assay: BLI; 2100, 210 nM CspL; binding lost at 21 nM; BLI, streptavidin sensor with 5'-biotin oligo; 20 mM PBS pH 7.4, 100 mM NaCl, 0.1% BSA, 0.02% Tween 20; CspL 20 ug/ml; temperature not in the material; conditions: protein: recombinant; tags: His; label: 5'-biotin

Binder	binding result (CspL [1])	binding result (CspL [1]; blunt)	other results
CCGCAGAGAACGACGAGAGC (ssDNA) [ssDNA gaaC]	binds	–	–
dsDNA gaaC (dsDNA) DNA 1: CCGCAGAGAACGACGAGAGC DNA 2: GCTCTCGTCGTTCTCTGCGG	–	no binding	–
CCGCAGATCCAGACGAGAGC (ssDNA) [ssDNA random]	binds	–	–
dsDNA random (dsDNA) DNA 1: CCGCAGATCCAGACGAGAGC DNA 2: GCTCTCGTCTGGATCTGCGG	–	no binding	–
GAGACCGGAATTCGAGCT (ssDNA) [18 nt ssDNA (ssDNA 5)]	–	–	binding result (CspL [2]): binds
